Data reported in the supplement of paper PMC10065799, “High-throughput profiling of sequence recognition by tyrosine kinases and SH2 domains using bacterial peptide display” (eLife, 2023).

These sequences were tested against FGFR3 (UniProt P22607) (assay: phosphorylation enrichment, bacterial display (enrichment ratio); higher = better substrate or ligand; peptides without Tyr show the background).
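Further: 11-residue human phosphosite peptides and single-mutation variants displayed on the E. coli surface, counted by deep sequencing, each peptide's frequency after selection divided by its frequency in the unselected input library; frequency after pTyr selection over input frequency; kinase dosed for 20-30% of maximal phosphorylation in three min.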

Chain of FGFR3 (P22607 whole entry, looked up): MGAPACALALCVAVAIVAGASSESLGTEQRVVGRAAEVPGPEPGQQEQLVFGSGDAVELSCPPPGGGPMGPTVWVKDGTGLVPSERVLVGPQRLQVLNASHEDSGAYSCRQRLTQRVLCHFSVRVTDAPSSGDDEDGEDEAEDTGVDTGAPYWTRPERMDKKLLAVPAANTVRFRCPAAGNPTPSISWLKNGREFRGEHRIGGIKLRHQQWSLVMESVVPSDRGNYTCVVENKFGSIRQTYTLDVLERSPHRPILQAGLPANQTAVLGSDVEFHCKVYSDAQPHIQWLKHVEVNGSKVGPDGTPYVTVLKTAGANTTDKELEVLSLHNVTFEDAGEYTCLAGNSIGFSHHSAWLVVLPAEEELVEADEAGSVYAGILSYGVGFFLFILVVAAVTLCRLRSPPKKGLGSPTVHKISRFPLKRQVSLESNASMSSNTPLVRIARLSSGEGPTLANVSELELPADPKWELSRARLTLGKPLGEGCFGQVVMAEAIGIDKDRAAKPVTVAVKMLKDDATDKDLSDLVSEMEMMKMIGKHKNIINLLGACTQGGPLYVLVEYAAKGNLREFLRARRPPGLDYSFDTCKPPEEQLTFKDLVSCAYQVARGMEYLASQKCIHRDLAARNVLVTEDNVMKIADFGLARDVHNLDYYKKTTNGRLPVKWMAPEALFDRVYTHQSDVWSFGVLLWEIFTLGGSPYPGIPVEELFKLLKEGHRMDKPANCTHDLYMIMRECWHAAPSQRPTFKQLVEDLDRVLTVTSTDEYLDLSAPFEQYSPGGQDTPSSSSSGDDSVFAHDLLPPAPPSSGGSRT

Going from EAVSIYQFHGQ [CBLC_Y402] to VMSGPYELKAL [IL1B_Y140], the phosphorylation enrichment falls from 0.594 to 0.57.

First: ANSPVYVPTTR [GATA6_Y188_S184N]
Second: GLPQTYCVSGP [DYSF_Y1684]
The phosphorylation enrichment of the first is lower: 0.441 for the first, 0.655 for the second.

Going from DDSNLYINVKL [MTHFD1_Y52] to FPKDVYVDSKD [NDUFAF4_Y69_L65P], the phosphorylation enrichment falls from 0.994 to 0.59.

First: VSRGRYRPQEC [B4GALT4_Y113]
Second: QPGDIYHQTWA [GBA_Y244]
The phosphorylation enrichment of the first is lower: 0.515 for the first, 2.69 for the second.

Compared with MRTMGYMPTEM [CABP5_Y62], SVVVPYEPPED [TP53_Y220_V225D] is higher in phosphorylation enrichment: 0.538 for the first, 0.759 for the second.

Going from GEHSIYCTVNN [CD55_Y266] to PNRILYGDFRQ [MYH6_Y717], the phosphorylation enrichment falls from 1.07 to 0.688.

Going from IAAEYYDNLPH [DEGS1_Y284] to FTNRSYDLDFD [MYC_Y12_N11S_YF], the phosphorylation enrichment falls from 5.34 to 0.708.

Compared with YLTSSYINIST [IL23R_Y178], IKGNMYFENSF [EGFR_Y112_R108K_YF] is lower in phosphorylation enrichment: 1.29 for the first, 0.677 for the second.

First: ITVPAYFNDSQ [HSPA9_Y196]
Second: ITNVLYHVVGW [GBA_Y412_L410V]
The phosphorylation enrichment of the first is lower: 0.672 for the first, 5.06 for the second.

Compared with FETDFYRKGGK [INSR_Y1190_YF], RPCVVYGGADI [DDX3X_Y301] is higher in phosphorylation enrichment: 0.472 for the first, 0.735 for the second.

Going from ASIVDYNIIGW [MYH7_Y588_G584S] to RGSQQYRALTV [TUBB8_Y281], the phosphorylation enrichment falls from 0.865 to 0.364.

Going from EDAHHYLCKEV [JAK2_Y382_A377E] to DFKIIYIVPMR [SNRNP200_Y540_A542V], the phosphorylation enrichment falls from 0.778 to 0.653.

Compared with RRDRDYTNLPS [CSF1R_Y923_E920D], LRAGVYHEKDQ [DNM2_Y626_P627H] is higher in phosphorylation enrichment: 0.696 for the first, 0.763 for the second.

First: QGRQTYLLQPA [DDR2_Y813_P815L]
Second: KPGLKYVTFGN [GALNTL5_Y404_YF]
The phosphorylation enrichment of the first is lower: 0.484 for the first, 0.514 for the second.

Compared with TLARLYHPDST [LRIG1_Y1029], SVTSTYSPALN [TP53_Y126_C124S] is lower in phosphorylation enrichment: 0.429 for the first, 0.398 for the second.

First: EYGFRYELVQY [UGGT2_Y1289]
Second: RDMMDYMLQGV [CYP21A2_Y259]
The phosphorylation enrichment of the first is higher: 1.17 for the first, 0.869 for the second.

Sequence IRTIDYRYTVW [IDS_Y497] has a phosphorylation enrichment of 0.732.

What follows are sequences tested on Fer (mouse) in the same assay as above.

Compared with EAVSIYQFHGQ [CBLC_Y402], VMSGPYELKAL [IL1B_Y140] is lower in phosphorylation enrichment: 10.4 for the first, 0.447 for the second.

First: ANSPVYVPTTR [GATA6_Y188_S184N]
Second: GLPQTYCVSGP [DYSF_Y1684]
The phosphorylation enrichment of the first is lower: 0.44 for the first, 0.559 for the second.

Compared with DDSNLYINVKL [MTHFD1_Y52], FPKDVYVDSKD [NDUFAF4_Y69_L65P] is lower in phosphorylation enrichment: 0.751 for the first, 0.367 for the second.

Going from VSRGRYRPQEC [B4GALT4_Y113] to QPGDIYHQTWA [GBA_Y244], the phosphorylation enrichment rises from 0.542 to 1.3.

Going from MRTMGYMPTEM [CABP5_Y62] to SVVVPYEPPED [TP53_Y220_V225D], the phosphorylation enrichment rises from 0.459 to 0.549.

Compared with GEHSIYCTVNN [CD55_Y266], PNRILYGDFRQ [MYH6_Y717] is lower in phosphorylation enrichment: 5.03 for the first, 0.5 for the second.

First: IAAEYYDNLPH [DEGS1_Y284]
Second: FTNRSYDLDFD [MYC_Y12_N11S_YF]
The phosphorylation enrichment of the first is higher: 0.874 for the first, 0.476 for the second.

Compared with YLTSSYINIST [IL23R_Y178], IKGNMYFENSF [EGFR_Y112_R108K_YF] is lower in phosphorylation enrichment: 0.567 for the first, 0.471 for the second.

Compared with ITVPAYFNDSQ [HSPA9_Y196], ITNVLYHVVGW [GBA_Y412_L410V] is higher in phosphorylation enrichment: 0.54 for the first, 1.82 for the second.

Going from FETDFYRKGGK [INSR_Y1190_YF] to RPCVVYGGADI [DDX3X_Y301], the phosphorylation enrichment rises from 0.319 to 0.653.

Going from ASIVDYNIIGW [MYH7_Y588_G584S] to RGSQQYRALTV [TUBB8_Y281], the phosphorylation enrichment falls from 0.59 to 0.584.

First: EDAHHYLCKEV [JAK2_Y382_A377E]
Second: DFKIIYIVPMR [SNRNP200_Y540_A542V]
The phosphorylation enrichment of the first is lower: 0.441 for the first, 0.487 for the second.

Compared with RRDRDYTNLPS [CSF1R_Y923_E920D], LRAGVYHEKDQ [DNM2_Y626_P627H] is lower in phosphorylation enrichment: 0.64 for the first, 0.509 for the second.

Compared with QGRQTYLLQPA [DDR2_Y813_P815L], KPGLKYVTFGN [GALNTL5_Y404_YF] is lower in phosphorylation enrichment: 0.388 for the first, 0.366 for the second.

Compared with TLARLYHPDST [LRIG1_Y1029], SVTSTYSPALN [TP53_Y126_C124S] is higher in phosphorylation enrichment: 0.364 for the first, 0.436 for the second.

Compared with EYGFRYELVQY [UGGT2_Y1289], RDMMDYMLQGV [CYP21A2_Y259] is lower in phosphorylation enrichment: 3.36 for the first, 0.612 for the second.

With IRTIDYRYTVW [IDS_Y497] the phosphorylation enrichment was 0.57.

The sequences below were run against Fes (UniProt P07332) in the same assay as above.
Chain of Fes (P07332 whole entry, looked up): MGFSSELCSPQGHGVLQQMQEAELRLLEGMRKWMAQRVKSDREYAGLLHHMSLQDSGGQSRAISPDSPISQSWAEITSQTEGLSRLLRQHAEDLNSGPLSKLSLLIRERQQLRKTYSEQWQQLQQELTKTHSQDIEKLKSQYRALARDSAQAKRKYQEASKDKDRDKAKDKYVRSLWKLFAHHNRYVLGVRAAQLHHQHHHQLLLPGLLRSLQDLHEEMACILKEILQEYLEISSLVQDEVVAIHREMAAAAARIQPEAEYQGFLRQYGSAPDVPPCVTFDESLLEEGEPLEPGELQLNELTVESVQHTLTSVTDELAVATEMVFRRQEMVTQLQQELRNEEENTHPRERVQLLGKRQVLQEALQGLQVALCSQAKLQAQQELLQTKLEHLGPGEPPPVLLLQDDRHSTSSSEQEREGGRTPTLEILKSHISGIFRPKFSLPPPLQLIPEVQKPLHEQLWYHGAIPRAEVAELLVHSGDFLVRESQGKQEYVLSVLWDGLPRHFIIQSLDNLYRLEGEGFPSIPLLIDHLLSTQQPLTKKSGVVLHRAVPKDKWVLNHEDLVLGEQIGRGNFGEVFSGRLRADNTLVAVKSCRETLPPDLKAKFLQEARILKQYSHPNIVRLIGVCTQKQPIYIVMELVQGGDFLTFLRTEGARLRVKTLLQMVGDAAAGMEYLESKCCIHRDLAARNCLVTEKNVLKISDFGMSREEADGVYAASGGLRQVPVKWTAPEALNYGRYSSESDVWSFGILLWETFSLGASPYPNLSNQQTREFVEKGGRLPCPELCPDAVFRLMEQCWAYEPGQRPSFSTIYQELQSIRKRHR

First: EAVSIYQFHGQ [CBLC_Y402]
Second: VMSGPYELKAL [IL1B_Y140]
The phosphorylation enrichment of the first is higher: 0.926 for the first, 0.622 for the second.

Going from ANSPVYVPTTR [GATA6_Y188_S184N] to GLPQTYCVSGP [DYSF_Y1684], the phosphorylation enrichment rises from 0.667 to 0.978.

Compared with DDSNLYINVKL [MTHFD1_Y52], FPKDVYVDSKD [NDUFAF4_Y69_L65P] is lower in phosphorylation enrichment: 1.63 for the first, 0.839 for the second.

Compared with VSRGRYRPQEC [B4GALT4_Y113], QPGDIYHQTWA [GBA_Y244] is higher in phosphorylation enrichment: 0.643 for the first, 0.963 for the second.

Compared with MRTMGYMPTEM [CABP5_Y62], SVVVPYEPPED [TP53_Y220_V225D] is higher in phosphorylation enrichment: 0.732 for the first, 1.4 for the second.

Compared with GEHSIYCTVNN [CD55_Y266], PNRILYGDFRQ [MYH6_Y717] is lower in phosphorylation enrichment: 1.73 for the first, 1.02 for the second.

Compared with IAAEYYDNLPH [DEGS1_Y284], FTNRSYDLDFD [MYC_Y12_N11S_YF] is higher in phosphorylation enrichment: 1.02 for the first, 1.13 for the second.

Going from YLTSSYINIST [IL23R_Y178] to IKGNMYFENSF [EGFR_Y112_R108K_YF], the phosphorylation enrichment falls from 1.18 to 0.951.

Compared with ITVPAYFNDSQ [HSPA9_Y196], ITNVLYHVVGW [GBA_Y412_L410V] is higher in phosphorylation enrichment: 1.06 for the first, 1.25 for the second.

Going from FETDFYRKGGK [INSR_Y1190_YF] to RPCVVYGGADI [DDX3X_Y301], the phosphorylation enrichment rises from 0.758 to 1.02.

Going from ASIVDYNIIGW [MYH7_Y588_G584S] to RGSQQYRALTV [TUBB8_Y281], the phosphorylation enrichment falls from 1.22 to 0.633.

First: EDAHHYLCKEV [JAK2_Y382_A377E]
Second: DFKIIYIVPMR [SNRNP200_Y540_A542V]
The phosphorylation enrichment of the first is lower: 0.857 for the first, 1.11 for the second.

Going from RRDRDYTNLPS [CSF1R_Y923_E920D] to LRAGVYHEKDQ [DNM2_Y626_P627H], the phosphorylation enrichment rises from 0.893 to 1.29.

First: QGRQTYLLQPA [DDR2_Y813_P815L]
Second: KPGLKYVTFGN [GALNTL5_Y404_YF]
The phosphorylation enrichment of the first is lower: 0.514 for the first, 0.768 for the second.

Going from TLARLYHPDST [LRIG1_Y1029] to SVTSTYSPALN [TP53_Y126_C124S], the phosphorylation enrichment falls from 0.743 to 0.712.

First: EYGFRYELVQY [UGGT2_Y1289]
Second: RDMMDYMLQGV [CYP21A2_Y259]
The phosphorylation enrichment of the first is higher: 1.65 for the first, 1.19 for the second.

Sequence IRTIDYRYTVW [IDS_Y497] has a phosphorylation enrichment of 1.16.

Each sequence was assayed against Fyn (UniProt P06241) in the same assay as above.
Chain of Fyn (P06241 whole entry, looked up): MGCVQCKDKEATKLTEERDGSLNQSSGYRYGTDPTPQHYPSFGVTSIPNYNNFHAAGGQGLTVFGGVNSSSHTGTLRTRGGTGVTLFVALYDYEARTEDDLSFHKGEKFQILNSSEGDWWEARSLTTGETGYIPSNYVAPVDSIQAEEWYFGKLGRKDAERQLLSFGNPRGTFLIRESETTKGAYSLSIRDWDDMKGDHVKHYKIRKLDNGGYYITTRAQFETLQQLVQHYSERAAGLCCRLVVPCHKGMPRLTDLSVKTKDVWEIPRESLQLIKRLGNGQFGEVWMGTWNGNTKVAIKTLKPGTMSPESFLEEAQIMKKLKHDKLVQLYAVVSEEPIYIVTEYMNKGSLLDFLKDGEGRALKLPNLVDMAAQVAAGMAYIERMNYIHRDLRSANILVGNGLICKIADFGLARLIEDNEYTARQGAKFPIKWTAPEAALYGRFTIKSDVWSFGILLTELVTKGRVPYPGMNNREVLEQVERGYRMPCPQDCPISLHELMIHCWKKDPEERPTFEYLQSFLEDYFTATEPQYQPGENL

Compared with EAVSIYQFHGQ [CBLC_Y402], VMSGPYELKAL [IL1B_Y140] is lower in phosphorylation enrichment: 5.93 for the first, 0.564 for the second.

First: ANSPVYVPTTR [GATA6_Y188_S184N]
Second: GLPQTYCVSGP [DYSF_Y1684]
The phosphorylation enrichment of the first is lower: 0.384 for the first, 0.629 for the second.

First: DDSNLYINVKL [MTHFD1_Y52]
Second: FPKDVYVDSKD [NDUFAF4_Y69_L65P]
The phosphorylation enrichment of the first is higher: 0.443 for the first, 0.409 for the second.

First: VSRGRYRPQEC [B4GALT4_Y113]
Second: QPGDIYHQTWA [GBA_Y244]
The phosphorylation enrichment of the first is lower: 0.574 for the first, 3.11 for the second.

Going from MRTMGYMPTEM [CABP5_Y62] to SVVVPYEPPED [TP53_Y220_V225D], the phosphorylation enrichment rises from 0.388 to 0.479.

Compared with GEHSIYCTVNN [CD55_Y266], PNRILYGDFRQ [MYH6_Y717] is higher in phosphorylation enrichment: 5.28 for the first, 6.85 for the second.

Compared with IAAEYYDNLPH [DEGS1_Y284], FTNRSYDLDFD [MYC_Y12_N11S_YF] is lower in phosphorylation enrichment: 0.613 for the first, 0.55 for the second.

First: YLTSSYINIST [IL23R_Y178]
Second: IKGNMYFENSF [EGFR_Y112_R108K_YF]
The phosphorylation enrichment of the first is lower: 0.488 for the first, 0.533 for the second.

First: ITVPAYFNDSQ [HSPA9_Y196]
Second: ITNVLYHVVGW [GBA_Y412_L410V]
The phosphorylation enrichment of the first is lower: 0.553 for the first, 3.01 for the second.

Going from FETDFYRKGGK [INSR_Y1190_YF] to RPCVVYGGADI [DDX3X_Y301], the phosphorylation enrichment rises from 0.381 to 1.07.

Going from ASIVDYNIIGW [MYH7_Y588_G584S] to RGSQQYRALTV [TUBB8_Y281], the phosphorylation enrichment falls from 0.45 to 0.325.

Compared with EDAHHYLCKEV [JAK2_Y382_A377E], DFKIIYIVPMR [SNRNP200_Y540_A542V] is lower in phosphorylation enrichment: 0.542 for the first, 0.412 for the second.

First: RRDRDYTNLPS [CSF1R_Y923_E920D]
Second: LRAGVYHEKDQ [DNM2_Y626_P627H]
The phosphorylation enrichment of the first is lower: 0.551 for the first, 0.608 for the second.

Going from QGRQTYLLQPA [DDR2_Y813_P815L] to KPGLKYVTFGN [GALNTL5_Y404_YF], the phosphorylation enrichment falls from 0.462 to 0.409.

Going from TLARLYHPDST [LRIG1_Y1029] to SVTSTYSPALN [TP53_Y126_C124S], the phosphorylation enrichment falls from 0.575 to 0.432.

Compared with EYGFRYELVQY [UGGT2_Y1289], RDMMDYMLQGV [CYP21A2_Y259] is higher in phosphorylation enrichment: 0.558 for the first, 0.673 for the second.

For IRTIDYRYTVW [IDS_Y497], the phosphorylation enrichment was 0.493.
